Reference: US20220213176A1

Molecular target: SARS-CoV-2 K417N+E484K+N501Y+D614G mutant pseudovirus spike (spikeΔ19) (SARS-CoV-2) (UniProt P0DTC2)
Experiment: cell-based or functional assay

Substance S309 dimer (antibody) has an NT50 (B.1.351) (nM), pseudovirus neutralization of 0.36 nM.
